{"source": "paper PMC2647301", "biological_target": "T1, Y2 I-AniI (Aspergillus nidulans (mitochondrial)?, UniProt P03880 235-488, F247Y;S345Y;F314K;L466K)", "T1 sequence": "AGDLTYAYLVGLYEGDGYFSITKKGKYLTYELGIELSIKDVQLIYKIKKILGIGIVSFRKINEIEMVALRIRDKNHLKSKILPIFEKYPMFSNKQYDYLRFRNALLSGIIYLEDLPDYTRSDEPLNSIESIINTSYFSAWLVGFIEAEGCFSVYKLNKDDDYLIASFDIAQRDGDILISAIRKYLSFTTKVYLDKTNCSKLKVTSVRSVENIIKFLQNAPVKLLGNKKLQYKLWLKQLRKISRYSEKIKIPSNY", "experiment": "X-ray crystallography"}
{"binder": "Y2 co-crystal I-AniI target duplex (dsDNA) DNA 1: GCGCGCTGAGGAGGTTTCTCTGTAAAGCGCA DNA 2: GCGCTTTACAGAGAAACCTCCTCAGCGCGCT", "values": [{"measurement": "binding result", "result": "binds"}]}
